This is an account of results in IntAct's records for PubMed 25609649.

B1: F-box/WD repeat-containing protein 11 (Homo sapiens), Q9UKB1 (parent)
chain: MEPDSVIEDKTIELMCSVPRSLWLGCANLVESMCALSCLQSMPSVRCLQISNGTSSVIVSRKRPSEGNYQKEKDLCIKYFDQWSESDQVEFVEHLISRMCHYQHGHINSYLKPMLQRDFITALPEQGLDHIAENILSYLDARSLCAAELVCKEWQRVISEGMLWKKLIERMVRTDPLWKGLSERRGWDQYLFKNRPTDGPPNSFYRSLYPKIIQDIETIESNWRCGRHNLQRIQCRSENSKGVYCLQYDDEKIISGLRDNSIKIWDKTSLECLKVLTGHTGSVLCLQYDERVIVTGSSDSTVRVWDVNTGEVLNTLIHHNEAVLHLRFSNGLMVTCSKDRSIAVWDMASATDITLRRVLVGHRAAVNVVDFDDKYIVSASGDRTIKVWSTSTCEFVRTLNGHKRGIACLQYRDRLVVSGSSDNTIRLWDIECGACLRVLEGHEELVRCIRFDNKRIVSGAYDGKIKVWDLQAALDPRAPASTLCLRTLVEHSGRVFRLQFDEFQIISSSHDDTILIWDFLNVPPSAQNETRSPSRTYTYISR
partner: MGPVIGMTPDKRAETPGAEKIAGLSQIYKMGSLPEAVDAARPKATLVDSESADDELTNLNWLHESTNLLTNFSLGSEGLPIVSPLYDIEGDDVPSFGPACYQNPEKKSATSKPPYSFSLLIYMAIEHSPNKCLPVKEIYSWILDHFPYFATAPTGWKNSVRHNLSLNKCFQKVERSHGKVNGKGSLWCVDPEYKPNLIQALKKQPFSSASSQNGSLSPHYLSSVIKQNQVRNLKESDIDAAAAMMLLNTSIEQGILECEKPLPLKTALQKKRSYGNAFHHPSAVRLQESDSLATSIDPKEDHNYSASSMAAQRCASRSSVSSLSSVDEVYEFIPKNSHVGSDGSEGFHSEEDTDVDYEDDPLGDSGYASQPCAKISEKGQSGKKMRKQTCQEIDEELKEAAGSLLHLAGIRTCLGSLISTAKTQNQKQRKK

This assay covers variants of B1. The conditions noted are these: with foxn2_human FOXN2, P32314.
With L474A, the “effect of a mutation on the interaction” value was “disrupting interaction”.
